In the experiment the target is CYP97C2 (rice) expressed in E. coli from pRQ-C2 (pCDFDuet-1-CYP97C2) (Rice (O. sativa)). As to the kind of experiment: cell-based or functional assay.

Take “CYP97A4 (rice) expressed in E. coli from pRT-A4 (pCOLADuet-1-CYP97A4) (enzyme)”: the lutein, % of total carotenoids in alpha- and beta-carotene accumulating E. coli with co-expressed hydroxylases (% of total carotenoids) amounted to 29. In turn, “HYD4 (maize) expressed in E. coli from pRQ-H4 (pCOLADuet-1-HYD4) (enzyme)” returned a lutein, % of total carotenoids in alpha- and beta-carotene accumulating E. coli with co-expressed hydroxylases (% of total carotenoids) of 1.58.

Values taken from patent US20150005534A1.
